According to patent US20030170849:

What was measured:
[1] = biological target: T1, C4α peptide (SEQ ID NO:23), modeled on tyrosine sulfation sites in the α chain of the fourth component of complement
T1 chain: EANEDYEDYEYDELPAC

[2] = biological target: T2, HCII peptide (SEQ ID NO:24), modeled on the tyrosine sulfation site in heparin cofactor II
T2 chain: EGEEDDDYLDLEKIFC

B1: Human TPST-1-HPC4 fusion protein (protein)
chain: MEDQVDPRLIDGKDPVGKLKQNLLLACLVISSVTVFYLGQHAMECHHRIEERSQPVKLESTRTTVRTGLDLKANKTFAYHKDMPLIFIGGVPRSGTTLMRAMLDAHPDIRCGEETRVIPRILALKQMWSRSSKEKIRLDEAGVTDEVLDSAMQAFLLEIIVKHGEPAPYLCNKDPFALKSLTYLSRLFPNAKFLLMVRDGRASVHSMISRKVTIAGFDLNSYRDCLTKWNRAIETMYNQCMEVGYKKCMLVHYEQLVLHPERWMRTLLKFLQIPWNHSVLHHEEMIGKAGGVSLSKVERSTDQVIKPVNVGALSKWVGKIPPDVLQDMAVIAPMLAKLGYDPYANPPNYGKPDPKIIENTRRVYKGEFQLPDFLKEKPQTEQVE
[1]
  specific activity of TPST-1 extracts relative to TPST-2 extracts assayed in parallel: 9-fold higher using the C4α peptide
[2]
  specific activity of TPST-1 extracts relative to TPST-2 extracts assayed in parallel: 21-fold higher using the HCII peptide as substrate
